The values that follow come from patent US20260209365A1, “ANTI-COMMON GAMMA CHAIN PROTEINS AND COMPOSITIONS OF MATTER” (SINOMAB BIOSCIENCE LIMITED, priority 2023, published 2026).

The target in test [1] is T1, human γc protein (extracellular domain) (human, UniProt P31785 23-262).
T1 construct: Purchased from Sino Biological or made in-house; Residues 1-262 may hold the signal peptide; also called human common gamma chain; purified human γc
T1 sequence: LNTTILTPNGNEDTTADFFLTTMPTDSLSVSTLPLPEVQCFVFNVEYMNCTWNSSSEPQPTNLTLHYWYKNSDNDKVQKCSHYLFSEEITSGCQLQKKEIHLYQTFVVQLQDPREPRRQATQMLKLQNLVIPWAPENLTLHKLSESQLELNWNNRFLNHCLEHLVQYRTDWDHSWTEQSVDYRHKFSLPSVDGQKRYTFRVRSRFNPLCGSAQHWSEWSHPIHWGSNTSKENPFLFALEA
The experiment in a line: monoclonal phage ELISA, human γc protein; negative control.

Test [2] has as its target T2, cynomolgus γc protein (extracellular domain), purified (cynomolgus (Macaca fascicularis), UniProt P31785 23-254 (human entry)).
T2 construct: Purchased from Sino Biological or in-house; also called cynomolgus (Macaca fascicularis) γc
T2 chain: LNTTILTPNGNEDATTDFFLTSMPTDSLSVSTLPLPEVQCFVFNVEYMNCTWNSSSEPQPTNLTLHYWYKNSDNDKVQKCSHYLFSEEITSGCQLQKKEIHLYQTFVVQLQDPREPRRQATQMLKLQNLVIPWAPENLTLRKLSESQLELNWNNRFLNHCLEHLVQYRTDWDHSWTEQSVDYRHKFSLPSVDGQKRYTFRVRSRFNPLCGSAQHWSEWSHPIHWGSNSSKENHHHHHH
The experiment in a line: ELISA, strip coated with 1 µg/ml cynomolgus γc, antibody in 5-fold dilutions from 10 to 0.00064 µg/ml, OD 450 nm; curve stays near baseline up to about 0.4 µg/ml and rises to about 1.35 at 10 µg/ml, no upper plateau. The protocol: (§1) More particularly, FIG. 3A presents the binding curve of SM-05A and FIG. 3B presents the bin ding curve of SM-05E. In each example, the ELISA strip was coated with 1 μg/ml γc protein from each species and antibody was diluted 5-fold each from 10 μg/ml to 0.00064 μg/ml.
(§2) Selected clones of full-length antibodies were evaluated by ELISA to access the binding specificity.

Test [3] has as its target T3, chimpanzee γc protein (extracellular domain), purified (chimpanzee (Pan troglodytes), UniProt P31785 23-262).
T3 construct: also called chimpanzee (Pan troglodytes) γc
T3 sequence: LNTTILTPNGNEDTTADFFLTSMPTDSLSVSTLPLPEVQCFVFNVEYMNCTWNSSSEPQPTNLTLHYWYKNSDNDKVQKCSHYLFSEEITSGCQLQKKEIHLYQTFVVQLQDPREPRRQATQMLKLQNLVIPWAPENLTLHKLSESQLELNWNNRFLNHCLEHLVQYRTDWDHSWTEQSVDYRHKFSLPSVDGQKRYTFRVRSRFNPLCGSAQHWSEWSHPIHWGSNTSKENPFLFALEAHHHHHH
The test is described as follows: ELISA, strip coated with 1 µg/ml chimpanzee γc, antibody in 5-fold dilutions from 10 to 0.00064 µg/ml, OD 450 nm; sigmoid curve reaching about 1.4. On the procedure: as §1, §2

Test [4] concerns the target T4, human γc protein (extracellular domain), purified (human (Homo sapiens), UniProt P31785 23-262).
T4 construct: Either purchased from Sino Biological or in-house generated; also called human common gamma chain; CD132; not shown: which was used i
T4 sequence: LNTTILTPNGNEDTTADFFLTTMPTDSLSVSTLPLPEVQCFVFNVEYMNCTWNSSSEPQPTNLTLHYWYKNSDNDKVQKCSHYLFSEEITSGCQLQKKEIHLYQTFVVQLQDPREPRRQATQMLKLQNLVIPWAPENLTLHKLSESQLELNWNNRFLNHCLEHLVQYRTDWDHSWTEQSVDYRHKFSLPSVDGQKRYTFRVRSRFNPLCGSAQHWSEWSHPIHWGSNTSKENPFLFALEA
The experiment in a line: ELISA, strip coated with 1 µg/ml human γc, antibody in 5-fold dilutions from 10 to 0.00064 µg/ml, OD 450 nm; sigmoid curve with plateau about 1.55. The protocol: as §1, §2

The target in test [5] is T5, mouse γc protein (extracellular domain) (mouse, UniProt P34902 23-263).
T5 construct: also called Mus musculus γc
T5 sequence: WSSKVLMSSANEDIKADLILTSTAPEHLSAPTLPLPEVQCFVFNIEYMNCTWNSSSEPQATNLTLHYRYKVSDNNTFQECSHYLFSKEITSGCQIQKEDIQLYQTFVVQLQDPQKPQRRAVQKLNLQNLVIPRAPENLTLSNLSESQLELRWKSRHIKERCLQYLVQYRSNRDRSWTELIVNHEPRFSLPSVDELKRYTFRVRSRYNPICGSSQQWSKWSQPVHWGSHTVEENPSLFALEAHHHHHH
The experiment in a line: BLI, antibody on anti-human IgG sensors, mouse γc in solution. On the procedure: (§3) Full-length humanized antibodies were evaluated by BLI to access their binding kinetics. The binding activities of full-length anti-γc antibody were investigated using γc proteins (extracellular domain) from human and common marmoset (either purchased or in-house generated). Briefly, anti-γc antibody (20 μg/mL) was immobilized on biosensors via interactions with anti-human IgG; serially diluted γc proteins (at a concentration of 158.7 nM, 79.4 Nm, 39.7n M and 0 nM respectively) were subsequently added following standard operation protocols of the Octet ReD96 system to plot out the association and dissociation curve. Irrelevant antibody (SM03, anti-human CD22 chimeric IgG1 antibody, SinoMab BioScience Limited) was used as the control reference. The KD is within the picomolar-single digit nanomolar range.

Test [6] concerns the target T1, human γc protein (extracellular domain). The test is described as follows: BLI (Octet RED96), antibody on anti-human IgG sensors, γc in solution; Experiment 1. On the procedure: as §3
For test [7], the target named is T6, common marmoset γc protein (extracellular domain) (common marmoset, UniProt P31785 26-262 (human entry)).
T6 construct: also called Callithrix jacchus γc
T6 chain: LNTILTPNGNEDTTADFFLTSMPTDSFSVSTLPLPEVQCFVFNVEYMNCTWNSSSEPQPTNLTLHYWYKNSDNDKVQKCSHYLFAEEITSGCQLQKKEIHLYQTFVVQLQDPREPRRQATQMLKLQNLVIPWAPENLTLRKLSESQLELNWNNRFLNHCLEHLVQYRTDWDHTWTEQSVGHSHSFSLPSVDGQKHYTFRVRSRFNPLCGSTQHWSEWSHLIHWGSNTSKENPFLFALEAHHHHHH
The test is described as follows: BLI, antibody on anti-human IgG sensors, common marmoset γc in solution. The protocol: as §3

Test [8] addresses T7, rat γc protein (extracellular domain) (rat).
T7 chain: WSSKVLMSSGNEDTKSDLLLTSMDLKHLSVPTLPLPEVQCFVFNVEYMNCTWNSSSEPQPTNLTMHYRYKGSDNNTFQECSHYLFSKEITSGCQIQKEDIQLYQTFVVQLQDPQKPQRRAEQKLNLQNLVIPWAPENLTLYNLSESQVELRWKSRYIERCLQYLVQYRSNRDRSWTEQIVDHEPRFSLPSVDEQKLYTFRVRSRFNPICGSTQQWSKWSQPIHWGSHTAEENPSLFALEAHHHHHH
The experiment in a line: BLI, antibody on anti-human IgG sensors, rat γc in solution.

Test [9] addresses T8, cynomolgus γc protein (extracellular domain) (cynomolgus, UniProt P31785 23-254 (human entry)).
T8 construct: also called Macaca fascicularis γc
T8 chain: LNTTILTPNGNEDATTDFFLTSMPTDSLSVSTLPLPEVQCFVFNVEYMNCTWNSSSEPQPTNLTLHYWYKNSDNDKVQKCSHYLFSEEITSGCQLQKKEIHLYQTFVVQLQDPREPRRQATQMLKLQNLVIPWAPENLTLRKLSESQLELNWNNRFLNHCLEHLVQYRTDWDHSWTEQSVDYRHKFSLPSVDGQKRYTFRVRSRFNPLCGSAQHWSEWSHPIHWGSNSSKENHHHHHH
The test is described as follows: BLI, antibody on anti-human IgG sensors, cynomolgus γc in solution.

Test [10] has as its target T1, human γc protein (extracellular domain). The test is described as follows: BLI (Octet RED96), antibody on anti-human IgG sensors, γc in solution; Experiment 2. The protocol: as §3
The target in test [11] is T4, human γc protein (extracellular …). The test is described as follows: ELISA, strip coated with 1 µg/ml human γc, antibody in 5-fold dilutions from 10 to 0.00064 µg/ml, OD 450 nm; sigmoid curve with plateau about 1.6. On the procedure:
as §1, §2

The target of test [12] is T3, chimpanzee γc protein (extracellular …). The test is described as follows: ELISA, strip coated with 1 µg/ml chimpanzee γc, antibody in 5-fold dilutions from 10 to 0.00064 µg/ml, OD 450 nm; curve rises to about 1.5 at the last point shown. On the procedure: as §1, §2
For test [13], the target named is T2, cynomolgus γc protein (extracellular …). The test is described as follows: ELISA, strip coated with 1 µg/ml cynomolgus γc, antibody in 5-fold dilutions from 10 to 0.00064 µg/ml, OD 450 nm; curve stays near baseline up to about 0.08 µg/ml and rises to about 1.65 at 10 µg/ml, no upper plateau. The protocol:
as §1, §2

Molecule M13KO7 (negative) showed an OD (450 nm) in [1] of 0.045 OD.

B1: SM-05A full-length chimeric anti-γc antibody (antibody, V domains shown)
VH: EVQLQQSGPELVKPGASVKISCKTSGYTFTEYTMHWVKQSHGKSLEWIGGIDPYNGGATYNQRFKGKATLTVDKSSSTAYMEFRSLTSEDSAVYYCARRRLYYGNALDYWGQGTSVTVSS
VL: DVLMTQTPLSLPVSLGDQASISCRSSQSLVHSNGNTYLHWYLQRPGQSPKLLIYKVSSRFSGVPDRFSGSGSGTDFTLKISRVEAEDLGVYFCSQTTHVPFTFGSGTKLEIKR
notes: Full-length chimeric antibody made in Expi-CHO (mouse variable, human constant regions)
Take B1: the EC50 turned out to be 14.5 µg/mL in [2], 0.17 µg/mL in test [3] and 0.02 µg/mL in test [4].

B2: hSM-05A (humanized anti-γc antibody with back-mutation) (antibody, V domains shown)
VH: QVQLVQSGAEVLKPGASVKVSCKASGYTFTEYTMHWVKQARGQRLEWIGGIDPYNGGATYNQRFKGKATLTTDTSTSTAYMELRNLRSDDTAVYYCARRRLYYGNALDYWGQGTLVTVSS
VL: DIVMTQSPLSLPVTPGEQASISCRSSQSLVHSNGNTYLHWYLQKPGQSPQLLIYKVSSRFSGVPDRFSGSGSGTDFTLKISRVEAEDVGVYFCSQTTHVPFTFGSGTKLEIKR
notes: Full-length humanized antibody; 199-200' and the pairing of claim 11(b); also called hbSM-05A; humanized SM-05A
B2: the Kd in test [5] is 108 nM; in [6] it was 2.69 nM; in [7], 4.05 nM; in test [8], 16.1 nM; in test [9], 304 nM; in test [10], 8.23 nM. For the same molecule, the koff in test [5] is 0.000712 s⁻¹; in test [6], 0.000319 s⁻¹; in test [7], 0.00121 s⁻¹; in test [9], 0.00683 s⁻¹; in test [10], 0.00144 s⁻¹. For the same molecule, the kon is 6580 M⁻¹ s⁻¹ in test [5]; 119000 M⁻¹ s⁻¹ in [6]; 300000 M⁻¹ s⁻¹ in test [7]; 22500 M⁻¹ s⁻¹ in test [9]; 175000 M⁻¹ s⁻¹ in test [10].

B3: SM-05E full-length chimeric anti-γc antibody (antibody, V domains shown)
VH: EVHLQQSGPELVKPGASVKIFCKTSGYTFTEYTMHWVKQSHGESLEWIGGIDPNTGGVTYNQKFKGKATLTADKSSSTAYMELRSLTSEDSAVYYCARRRRYYGYALDYWGQGTSVTVSS
VL: DVLMTQTPLSLPVSLGDQASISCRSSQSIVHSNGNTYLEWYLQKPGQSPKLLIYKVSNRFSGVPDRFSGSGSGTDFTLKISSVEAEDLGVYFCSQSTHVPFMFGSGTKLEIKR
notes: Full-length chimeric antibody made in Expi-CHO
As for B3, the EC50 in test [11] is 0.02 µg/mL; in test [12], 0.17 µg/mL; in test [13], 6.47 µg/mL.

B4: hSM-05E (humanized anti-γc antibody with back-mutation) (antibody, V domains shown)
VH: QVQLVQSGAEVLKPGASVKVSCKASGYTFTEYTMHWVKQARGQRLEWIGGIDPNTGGVTYNQKFKGKATLTTDTSTSTAYMELRNLRSDDTAVYYCARRRRYYGYALDYWGQGTLVTVSS
VL: DIVMTQSPLSLPVTPGEQASISCRSSQSIVHSNGNTYLEWYLQKPGQSPQLLIYKVSNRFSGVPDRFSGSGSGTDFTLKISRVEAEDVGVYFCSQSTHVPFMFGSGTKLEIKR
notes: Full-length humanized antibody; VH 198 / VL 200 tied to SM-05E only by the order '(e.g., SM-05A, SM-05E) ; 199-200' and the pairing of claim 11(d); also called hbSM-05E; humanized SM-05E
With B4, the Kd in test [5] was found to be 66.2 nM; in test [6], 4.82 nM; in test [7], 5.27 nM; in test [8] it was 29.3 nM; in [9] it was 304 nM; in test [10], 2.89 nM. Further, the koff is 0.0252 s⁻¹ in [5]; 0.000573 s⁻¹ in test [6]; 0.00175 s⁻¹ in test [7]; 0.00208 s⁻¹ in test [8]; 0.00683 s⁻¹ in test [9]; 0.000944 s⁻¹ in test [10]. Further, the kon worked out at 340000 M⁻¹ s⁻¹ in test [5]; 119000 M⁻¹ s⁻¹ in test [6]; 333000 M⁻¹ s⁻¹ in test [7]; 71000 M⁻¹ s⁻¹ in [8]; 22500 M⁻¹ s⁻¹ in test [9]; 327000 M⁻¹ s⁻¹ in test [10].
